In PMC12557367, ““Precision on Two Wheels”–Structural Refinement of ^64Cu- and ^68Ga-Labeled Bicyclic Peptides Targeting Nectin‑4 for Improved Tumor Imaging: From Preclinical Development to First-in-Human Application” (Journal of Medicinal Chemistry, 2025):
Numbered stars: 1 amine (or outer) side, 2 acyl side, 3 side chain; on linkers, the order of the positions; unused ones are H or OH. Bridge positions count the residues as written; N and C are the ends. Square brackets hold non-standard residues; d marks the D form. * marks the point of attachment. 6‑TAMRA = CN(C)c1ccc2c(-c3cc(C(=O)*)ccc3C(=O)[O-])c3ccc(N(C)C)cc3[o+]c2c1; (R)‑NODAGA = O=C(O)CN1CCN(CC(=O)O)CCN([C@H](CCC(=O)*)C(=O)O)CC1; TATA = O=C(CC[*:1])N1CN(C(=O)CC[*:2])CN(C(=O)CC[*:3])C1; Mox = methoxinine, COCC[C@H](N[*:1])C(=O)[*:2]; 1Nal = N[C@@H](Cc1cccc2ccccc12)C(=O)O; Hyp = O=C(O)[C@@H]1C[C@@H](O)CN1; hArg = N=C(N)NCCCC[C@H](N)C(=O)O

T1: nectin-4 on intact HT-1376 cells (human (endogenous in HT-1376), UniProt Q96NY8 32-510)
T1 construct: also called cellular nectin-4
T1 sequence (looked up): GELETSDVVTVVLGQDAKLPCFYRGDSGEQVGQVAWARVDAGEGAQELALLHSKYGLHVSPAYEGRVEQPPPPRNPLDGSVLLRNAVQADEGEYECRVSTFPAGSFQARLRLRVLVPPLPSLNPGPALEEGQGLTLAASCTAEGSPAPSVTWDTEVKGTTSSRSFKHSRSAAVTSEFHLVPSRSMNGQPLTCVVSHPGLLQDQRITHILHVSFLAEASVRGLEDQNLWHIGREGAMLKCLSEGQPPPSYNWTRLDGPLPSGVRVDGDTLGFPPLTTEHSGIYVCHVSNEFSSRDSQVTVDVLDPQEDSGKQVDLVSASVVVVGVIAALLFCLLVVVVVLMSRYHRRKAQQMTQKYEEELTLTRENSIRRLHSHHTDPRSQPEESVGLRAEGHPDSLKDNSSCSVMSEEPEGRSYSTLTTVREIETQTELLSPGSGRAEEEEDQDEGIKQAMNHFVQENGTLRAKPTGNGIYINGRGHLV

T2: recombinant human nectin-4 (human, UniProt Q96NY8 32-349)
T2 construct: nectin-4, human, recombinant; also called complete extracellular domain of nectin-4; source: bought: R&D Systems (Catalog number 2659-N4)
T2 sequence (looked up): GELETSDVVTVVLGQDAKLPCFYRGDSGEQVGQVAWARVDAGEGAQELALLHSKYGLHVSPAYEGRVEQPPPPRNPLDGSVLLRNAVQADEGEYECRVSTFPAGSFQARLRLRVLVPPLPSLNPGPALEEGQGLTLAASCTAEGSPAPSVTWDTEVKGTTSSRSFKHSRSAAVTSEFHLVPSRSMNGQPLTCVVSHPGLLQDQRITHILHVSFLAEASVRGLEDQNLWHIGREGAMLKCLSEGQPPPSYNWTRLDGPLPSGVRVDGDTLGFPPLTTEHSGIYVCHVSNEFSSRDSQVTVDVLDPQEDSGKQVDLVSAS


What was measured:
[1] = target: T1, nectin-4 on intact HT-1376 cells; assay: radioligand binding; cellular efflux: release of [64Cu]Cu-4 from intact HT-1376 cells over 4 h at 37 °C after 1 h incubation at 10 nM; two-phase decay; settings: one partner purified
[2] = target: T1, nectin-4 on intact HT-1376 cells; assay: radioligand binding; saturation binding on intact HT-1376 cells, 10 radioligand concentrations (0.156-80 or 0.321-160 nM), 37 °C, 1 h, PBS wash; nonspecific with 1 µM 1d; apparent (covers binding and putative internalisation); settings: one partner purified
[3] = target: T3, recombinant N-terminal Ig-like V domain of nectin-4 (human); assay: fluorescence polarisation; fluorescence anisotropy, direct binding of probe 1a to the N-terminal Ig-like V domain of nectin-4; same procedure as for nectin-4; settings: both partners purified
T3 construct: nectin-4, N-terminal Ig-like V domain, recombinant; source: bought: Acro Biosystems (NE4-H82Ea)
T3 sequence (Q96NY8 whole entry): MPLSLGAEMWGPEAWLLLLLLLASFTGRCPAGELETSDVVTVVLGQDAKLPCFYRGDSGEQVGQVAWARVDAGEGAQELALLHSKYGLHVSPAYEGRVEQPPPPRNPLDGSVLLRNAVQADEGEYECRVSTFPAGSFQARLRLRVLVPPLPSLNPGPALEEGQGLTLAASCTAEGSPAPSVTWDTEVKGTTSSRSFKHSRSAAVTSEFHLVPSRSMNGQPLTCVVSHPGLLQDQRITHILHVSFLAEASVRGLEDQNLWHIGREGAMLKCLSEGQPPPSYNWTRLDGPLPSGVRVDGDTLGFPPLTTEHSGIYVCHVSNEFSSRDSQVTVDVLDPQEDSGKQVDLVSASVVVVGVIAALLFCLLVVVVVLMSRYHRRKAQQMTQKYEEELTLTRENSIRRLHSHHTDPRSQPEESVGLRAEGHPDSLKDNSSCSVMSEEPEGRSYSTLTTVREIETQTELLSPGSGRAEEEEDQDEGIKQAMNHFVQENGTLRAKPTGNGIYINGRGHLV

[4] = target: T2, recombinant human nectin-4; assay: fluorescence polarisation; fluorescence anisotropy, direct binding: 1 nM fluorescent probe, 11 to 13 concentrations of nectin-4 (e.g. 0.06-250 nM), 37 °C, 1200 s, HEPES buffer 20 mM pH 7.4, 0.01% Tween20, NaCl, 1% DMSO; Morrison equation; settings: both partners purified

| half-life of the fast phase of cellular release [1] [min] | Kd [2] [nM] | Kd [3] [nM] | Kd [4] [nM] | Binder |
| --- | --- | --- | --- | --- |
| 9.5 | 6.06 | – | – | {(R)‑NODAGA}-CP[1Nal][dD]C[Mox][hArg]DWSTP[Hyp]WC-NH2 (linker 1-5-15 via TATA; also: NODAGA complexed with 64Cu) [[64Cu]Cu-4] |
| – | – | 1.3 | 0.94 ± 0.09 | {6‑TAMRA}-CP[1Nal][dD]CM[hArg]DWSTP[Hyp]WC-NH2 (linker 1-5-15 via TATA) [1a] |
